In article PMC4837482, “The complex binding mode of the peptide hormone H2 relaxin to its receptor RXFP1” (Nature Communications, 2016):
Residue numbers refer to the chain shown, from its start.

What was measured:
Assay in all cases: cAMP activity assay (pCRE β-galactosidase reporter), transfected HEK293T cells
Type in all cases: cell-based
[1] = target: T1, RXFP1 E67A (Homo sapiens, UniProt Q9HBX9, E89A); conditions: construct E67A, ±s.e.m.
T1 construct: cells expressing full-length RXFP1 and mutants; expressed in transfected cells; host or cells: HEK293T
T1 sequence (Q9HBX9 23-757 E89A limits assumed): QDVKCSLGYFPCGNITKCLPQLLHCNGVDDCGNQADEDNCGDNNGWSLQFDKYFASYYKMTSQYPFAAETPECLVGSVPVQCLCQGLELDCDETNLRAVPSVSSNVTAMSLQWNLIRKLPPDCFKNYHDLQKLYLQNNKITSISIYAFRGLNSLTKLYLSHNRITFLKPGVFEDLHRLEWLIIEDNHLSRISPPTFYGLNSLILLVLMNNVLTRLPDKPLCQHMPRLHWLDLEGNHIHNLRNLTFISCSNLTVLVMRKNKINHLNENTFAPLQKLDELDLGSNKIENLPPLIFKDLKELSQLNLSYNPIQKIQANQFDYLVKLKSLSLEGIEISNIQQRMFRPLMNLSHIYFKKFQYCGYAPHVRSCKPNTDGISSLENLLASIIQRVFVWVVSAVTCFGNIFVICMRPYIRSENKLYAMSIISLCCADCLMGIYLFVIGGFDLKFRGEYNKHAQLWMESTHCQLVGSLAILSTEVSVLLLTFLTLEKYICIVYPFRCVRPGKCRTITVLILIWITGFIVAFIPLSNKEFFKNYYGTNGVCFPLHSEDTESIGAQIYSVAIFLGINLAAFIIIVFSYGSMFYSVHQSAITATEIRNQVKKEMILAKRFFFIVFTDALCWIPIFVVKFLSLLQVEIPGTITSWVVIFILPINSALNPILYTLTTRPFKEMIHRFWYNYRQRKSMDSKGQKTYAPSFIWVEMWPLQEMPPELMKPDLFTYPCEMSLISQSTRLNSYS
Method: (§1) Media was aspirated and plates stored frozen at −80 °C overnight. […] H2 relaxin dilutions were prepared in minimal media containing 1% DMSO. Positive and negative control stimulations were achieved by incubation with 5 μM Forskolin and minimal media/1% DMSO, respectively. Plates were developed by 10 min of incubation in 25 μl of lysis buffer 1 (100 mM Na2HPO4, pH 8.0, 0.2 mM MgSO4 0.01 mM MnCl2); a further 10 min of incubation in 100 μl of buffer 2 (100 mM Na2HPO4, pH 8.0, 2 mM MgSO4, 0.1 mM MnCl2, 0.5% Triton X-100, 40 mM β-mercaptoethanol); then to each well 25 μl of the β-galactosidase substrate, chlorophenol red-β-D-galactopyranoside (Roche) was added. All incubation steps were conducted with orbital shaking. Color-change was monitored and readings were taken on a Benchmark Plus Microplate Reader (Bio-Rad) at 570 nm. A minimum of three separate experiments were performed, each of them in triplicate, and data were pooled and presented as percentages of the maximum response induced by 5 μM Forskolin±s.e.m.

[2] = target: T2, RXFP1 F50A (Homo sapiens, UniProt Q9HBX9, F72A); conditions: construct F50A, ±s.e.m.
T2 construct: expressed in transfected cells; host or cells: HEK293T
T2 sequence (Q9HBX9 23-757 F72A limits assumed): T1 sequence (Q9HBX9 23-757 E89A limits assumed) with F50A, A67E
Method: as §1

[3] = target: T3, RXFP1 Q49A/F50A (Homo sapiens, UniProt Q9HBX9, F72A/Q71A); conditions: construct Q49A/F50A, ±s.e.m.
T3 construct: cells expressing full-length RXFP1 and mutants; expressed in transfected cells; host or cells: HEK293T
T3 sequence (Q9HBX9 23-757 Q71A/F72A limits assumed): T1 sequence (Q9HBX9 23-757 E89A limits assumed) with Q49A, F50A, A67E
Method: as §1

[4] = percentage of maximum response to 5 μM Forskolin

## H2 relaxin: two-chain 6-kDa peptide hormone structurally related to insulin; recombinant human gene-2 H2 relaxin provided by Corthera
[1]; cAMP reporter
  H2 relaxin pEC50: 11.13±0.13
[1]; [4]
  H2 relaxin Emax: 141.74±27.08 (5) %
[2]; cAMP reporter
  H2 relaxin pEC50: 9.45±0.07 (4)
[2]; [4]
  H2 relaxin Emax: 91.9±2.1 (4) %
[3]; cAMP reporter
  H2 relaxin pEC50: 9.17±0.04 (3)
[3]; [4]
  H2 relaxin Emax: 98.2±8.8 (3) %
